Measured values: US20240309051A1, “[…] T (TFH) CELLS […] TO SARS-COV-2 VIRUS” (priority 2021, published 2024)

T1: SARS-COV-2 spike (S) protein peptide on HLA-DRA*01:01 / HLA-DRB1*15:01 (human)
T1 peptide: YTSALLAGTITSGWT

T2: SARS-COV-2 spike (S) protein peptide on HLA-DRA*01:01 / HLA-DRB1*15:01 (human)
T2 peptide: LLTDEMIAQYTSALLAGTI

T3: SARS-COV-2 spike (S) protein peptide on HLA-DRA*01:01 / HLA-DRB1*15:01 (human)
T3 peptide: DEMIAQYTSALLAGT

T4: SARS-COV-2 spike (S) protein peptide on HLA-DRA*01:01 / HLA-DRB1*15:01 (human)
T4 peptide: LPPLLTDEMIAQYTS

T5: SARS-COV-2 spike (S) protein peptide on HLA-DRA*01:01 / HLA-DRB1*15:01 (human)
T5 peptide: PPLLTDEMIAQYTSA

T6: SARS-COV-2 spike (S) protein peptide on HLA-DRA*01:01 / HLA-DRB1*15:01 (human)
T6 peptide: AQYTSALLAGTITSG

T7: SARS-COV-2 spike (S) protein peptide on HLA-DRA*01:01 / HLA-DRB1*15:01 (human)
T7 peptide: PLLTDEMIAQYTSAL

T8: SARS-COV-2 S protein, S867-881 peptide with residue 5 (T) of SEQ ID NO: 13 replaced with alanine peptide on … (human)
T8 peptide: DEMIAQYASALLAGT

T9: SARS-COV-2 spike (S) protein peptide on HLA-DRA*01:01 / HLA-DRB1*15:02 (human)
T9 peptide: LLTDEMIAQYTSALLAGTI

B1: Clone 1 (TCR-017) (TCR)
alpha TRAV12-1 TRAJ12 CDR3: CVVNRGSSYKLIF
beta TRBV11-2 TRBJ2-7 CDR3: CASSQTYEQYF

How the values were obtained:
[1] = test system: T-cell hybridomas expressing TCRs of clonotype 1/2 (clone 1 and clone 2); assay type: cell-based, human
[2] = test system: CD4 positive cells and patient-derived B cells immortalized by EBV infection; assay: Restimulation assay of PBMC by S864-882 peptide, human IL-21 ELISA; assay type: cell-based; conditions: peptide 1 μg/ml; 24 hr; compared with not stimulated
[3] = biological target: T1, SARS-COV-2 spike (S) protein peptide on …; assay: activation reporter or marker
[4] = biological target: T2, SARS-COV-2 spike (S) protein peptide on …; assay: activation reporter or marker
[5] = biological target: T3, SARS-COV-2 spike (S) protein peptide on …; assay: activation reporter or marker
[6] = biological target: T4, SARS-COV-2 spike (S) protein peptide on …; assay: activation reporter or marker
[7] = biological target: T5, SARS-COV-2 spike (S) protein peptide on …; assay: activation reporter or marker
[8] = biological target: T6, SARS-COV-2 spike (S) protein peptide on …; assay: activation reporter or marker
[9] = biological target: T7, SARS-COV-2 spike (S) protein peptide on …; assay: activation reporter or marker
[10] = biological target: T8, SARS-COV-2 S protein, S867-881 peptide …; assay: activation reporter or marker
[11] = biological target: T9, SARS-COV-2 spike (S) protein peptide on …; assay: activation reporter or marker

Row | Molecule | stimulation of clones 1 and 2, CD69 expression ([1]; APC from an individual who has DRB1*15:02 but not DRB1*15:01) | epitope determination by stimulating clones 1 and 2 with single synthesized peptide, CD69 ([1]; single peptide 1 μg/ml, 20 hr, in the presence of APC) | concentration of IL-21 in the medium [2] | binding result [3] | binding result [4] | binding result [5] | binding result [6] | binding result [7] | binding result [8] | binding result [9] | binding result [10] | binding result [11]
1 | S864-882: peptide of positions 864-882 of the SARS-CoV-2 S protein, epitope of clones 1 and 2 | able to stimulate both clones 1 and 2 | determined as an epitope for both clones 1 and 2 | higher |  |  |  |  |  |  |  |  | 
2 | B1 |  |  |  | no recognition | recognises | recognises | no recognition | no recognition | no recognition | no recognition | no recognition | recognises
